Experiment: soluble fraction after stress (log2 fold change); higher = more stays soluble; pooled small domains, quantitative proteomics
Details: stress: 75 degC
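Note: 20 min heating vs room temperature control held 20 min.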

Sequence | soluble fraction (log2)
HMFISVDGLIHMGRTHLVILGGVEFARGDMIPETGEVVKSIGADSVVLELPDTGMRRTLNFV | -2.97
HMFKINNIIVSGLSEKSNLQTSEEIKNILFENIFFIKKDVLFKILEKNNLINSFEIKKIYPDTIEVKIKKT | 0.0453
HMFKITNTLNKTAEVYLTIPENKKGKGKIMISVNGAFHELEAMTENDKIQSGAVVKVVRIENDNILIVET | -2.18
HMFKMRVNGKEVIGMAITAKPQANPIDVADEIKKFVIDANTKLPSTMKLEVLYDATGIFRASISEVIS | -1.08
HMFLDKDTLNQLYRFGIALTGNEQDSQDVLHTAIERFLRNKPQQINQQAAYIRTIMRNYWYDELRKLKTQ | -3.06
HMFLPETEVKSFFHRGITKISPSLAMDIADFFRMPFAVILKRALALEVISDEQYRSFMTVKPEHV | 0.137
HMFLSQQDINRANAASVTDMGDIIRRTFERNAAEINGLELSDAEKKDAVKQMATLATTALKTAAGAVNPY | -0.0457
HMFLSSEERRERIIEVLRQQDEVTVVELSHRLGVSEVTTRKDLQQLEEQGYLTRVRGGAVVSGRGQL | -0.0348
HMFMNFAEHLMALRKQRGWSQEELGSQIGVTRQTVSKWEMGQSTPELEKLVELSRLFGMSIDQLVGL | -0.118
HMFNISEKLKKYRNALGLTQTEVAEKIEITKPTYASYEKGKDISIGTLKKLADLFEVSFESFFSE | -0.283
HMFNLFPHLSVLRNITLAPQKVKGLNRSESNEIAMSLLERVGIPEQSDKFPSQLSGGQQQRVAIARALAM | -0.502
HMFPELSEEEQIIVSLLQKQPDGLQINTLVVESNIPVNRMSGILFELEMKGIIRMAAGGVYRLL | -1.35
HMFQEGLVAPPAYTRPESFRGWEVPEILRSGNFPAIAKWQHEESLRLTRERRPAMLEAYERRT | -0.107
HMFQNYTDAVVVASKTFFYNMPDESTRKSAYLIQGDRIMVEKSQRNFVYVTFTNEASGRTTTGWLKSDDLE | -2.65
HMFSDDEINRLKARDSILVNLRDSEKQVWELYTDGKTVQNIANQLNKHKQSISATIINIKNKISRKQNMLK | -0.709
HMFSGVQLGQAISEAIKRKNVSQKEVADHFGVKQPSVSGWIKNGRIDKKHLDKLIDYFSDVVTPSHFGIE | 0.27
HMFSQDQIFLRSGEKIDARVIEVTPEFIKYKSKANPEGPLYSKKITDVLLITYANGTTEVYE | -0.764
HMFTDAEIKQFAAAAVEVTKIQQDSTISAADKQPKMLAVVQSSGLPPEKFNQIGQAAAADPALQQRIQA | 0.038
HMFTEPQKLVKRILNMLGHRYDDASIQARSDFQASNNYHKVQVKKKRESMEEYTAWLEEMYDAYRIN | -1.49
HMFTFEDMDKFESLLTTGLTDVQRRIYSLVTHDGKEYDLIAETLGISVEAVRMHMSRARKKIRENYKKID | -3.38
HMFTIGENIRDLRLERAITQEQLAEQLNVSAPAVSKWERGEAYPDITLVPKLAEILGVSTDKLFGVD | 0.0273
HMFTKYSPDFKLSVILDMRKNNLGYGEVVRKYWNLDSYKESDRHRSQVRLWERIFLEEGVEGFM | -4.63
HMFTLDDLQATYDIFERAEQNSDAMLAFQKVITAEGLDFDLTSPQGIVDFFKGAAPTEIYDLYEAS | -0.547
HMFTNSTSSRQLTNSDDTLRLNISSQTRQMLPNGQPFGGSLSGKLLLVIYGATTRSIPAQTTPEKIVV | -0.198
HMFTSVDVAPDLRTAKVFYSVLGRKKSDKEINIAINQKRKAFKKFMGPELHLKNIPDLHFYYD | -0.369
HMFTYDLSERELTIIELVAKGLNNKELADTLFLSEGTIRNYLSTLLNKLDLRDRTQLAIFYYQHL | -2.16
HMFVEEGSLKKITFDTYEFNITDNLKSLRVTYQGLLPNLFREGQGVVIEGILLEQNYIQANTVF | 0.249
HMFVTGTTIKKLREEKRMTQGELAQMIGVSDKAVSKWETGRGLPDISLLEPLSRALGISVAELFAGQH | -0.612

Sequence | soluble fraction (log2)
HMFWEGYLAARREQFLKDQQVLLGNEFRSNPDFWLEVASKEWAVVEERLSTGADVSEEVQETMGLDF | -2.13
HMFYNSSDNAYKILEINKSATVDEIKAAYRKMAKKYHPDKVIHLGQEHQKGAEEKFRQVQEAYEELQKERG | 0.19
HMGAAVEVISLRYRSAAELLPIVRSLLSTEGKISADERTNSLIIVDSDEAVARVIHSLATLDT | -1.3
HMGADGIPGKNGENGETSYVHFAYATSADGKTGFSTTDTVGKTYMGQYADFEKADSEDPTKYRWGKFQGP | 0.0581
HMGAFAIHTASELSAGMRIRHERFGPGVITGIDTANPASGARIQVDFDNGTSKTLLLSYAKFQI | -2.53
HMGAGKVVDGVTYDFVFDVDVADGQPPLRLPYNRGEDVYQAAERFILRNELPATYREQIVNFIVQNTPG | -0.116
HMGAISGEQREFYTVFRGHLNSHVGEFKVEDIENLLMKAKTEVPDLLEEEFLKMGEAILNRYRN | 0.0818
HMGAKEHLAGETLRMAVELLSEKQGIPAEQALIRFISSPVYDALYDLDTGMWTQGPTRLLEAFEALE | -2.01
HMGALARLLASVEQELGVTRDRMTRTQKQEAVTLLNEWGAFTLRKSVEDVAEALGVSRFTVYNYLERAEA | -2.99
HMGALSLDMLFDRFDALQEQSMGDKTEGGQELRGMIRTFIEQEKLDIRVTRTTTNAALLEMIEKEMQG | -0.717
HMGASALTEREREVLRLLEGGGSDKRIARQLAISEHGVRYHLKSIYKKLGVHDRVSAIAAGRRLAS | -1.37
HMGASTQLVEIKNAYENGEWQNVIDLAGKLHEKYNGSEEDKEAQEMAKNSQSKLDEAAAAKAAEEA | 0.0816
HMGASYSQFLDQVDSGNVQKVAFGGDMRGGTSQLTYTTRGGQSSTITAPFDRDLINVLRTKNVEIVQEEP | 0.236
HMGATFITSSKDNAINIRQAAGTDSKVIETIKNGHILESSEKSGEWYKVTYYDSDIKKTFTGYIHNSQLK | 0.376
HMGAVQFAEQKIHIGSRWIGKKISEFSAESDAFVILIKRGSEVVIPRGPTDIVENDVLVIHVPD | -3.05
HMGAVVSPMPGVILDIKVKEGDSVSEGQTVIILEAMKMENEIVSEFTGTVSAIRVKKGDTVDTDAVLVEI | -1.76
HMGAYPENSLLKERGQSAVYLIQENRKRLFFNAEAFLINGYNWKDIQVVDDLSKILTGKVIYAK | -2.83
HMGDAATVFRDHYNINSAAQAQAALDRKEALWEQPNPWRDSDNREVFDWAAQTVKDRFDSGKYKPK | 0.626
HMGDDVRKNILDVLSKFERVDITDLDSLELVRFYLEIEDIFDIEIKENDFYRLKSVDSIVDYIRNKSFF | -1.31
HMGDIQFMEYRINHSSGWIGKNISDFAAVSKNLVILIKRGQDVVIPRGPTAIMEDDVLVLHA | -1.88
HMGDITALMPGKVIQIIVKEGQEIKVGDPLIVIESMKMENTISSEVNGTIKSINIQIDDNVQFDQVLFTV | -2.54
HMGDITIPDLQGMSFDQAREKLKALGLSIGKISYTSDTSKDDGVVISQGLQAGGKASKGATVDITINET | 0.332
HMGDLEEAVKDFSEAIRLNDSWAEAYANRAVVYAEQGDAAQSDQDAEKARLLGVDQNRLNEMLNAVNS | 0.294
HMGDLKALMPGKVTQVLVSGGQKVKVGEPVLLMESMKMEQTIVATKDGDISEILVSEGDTVEVGKIMIKI | -0.00398
HMGDLTVPDLSGLTVDQAKQRLKDMGLVLGKITTQEDSSKPDGVIISQSPSADGKINKGQLVDVVVNKLS | 0.034
HMGDTHKVPGVKGVNVEQAMDMLSRLDLKAVVIDSVYVKDKKLGTVIEQNPVEGSVVKPGRPIYLVVNSRS | 0.352
HMGDTISVPAVRTLAYNKAMDILNAEGLKGIVADSVYDNHTAPGTVIEQNPKAGTIVKEGREVFLTIHA | 0.117
